# Laboratory results: PMC12135937
# Tests used:
# Assay in all cases: SPR; Biacore T100, CM4 chip; DIPs immobilised by amine coupling (700-900 RU), monomeric Dpr analytes in 3-fold dilution series (0.012 to 9, 27 or 81 µM); 25 °C; 10 mM Tris-HCl pH 7.2, 150 mM NaCl, 1 mM EDTA, 1 mg/mL BSA, 0.01% Tween-20; equilibrium responses fit to a 1:1 model
# [1] = target: DIP-β isoform C (Drosophila melanogaster)
# [2] = target: DIP-α (Drosophila melanogaster) (UniProt Q9W4R3)
# [3] = target: DIP-λ (Drosophila melanogaster)
# Chain of DIP-λ (Drosophila melanogaster) (main, as listed by the source): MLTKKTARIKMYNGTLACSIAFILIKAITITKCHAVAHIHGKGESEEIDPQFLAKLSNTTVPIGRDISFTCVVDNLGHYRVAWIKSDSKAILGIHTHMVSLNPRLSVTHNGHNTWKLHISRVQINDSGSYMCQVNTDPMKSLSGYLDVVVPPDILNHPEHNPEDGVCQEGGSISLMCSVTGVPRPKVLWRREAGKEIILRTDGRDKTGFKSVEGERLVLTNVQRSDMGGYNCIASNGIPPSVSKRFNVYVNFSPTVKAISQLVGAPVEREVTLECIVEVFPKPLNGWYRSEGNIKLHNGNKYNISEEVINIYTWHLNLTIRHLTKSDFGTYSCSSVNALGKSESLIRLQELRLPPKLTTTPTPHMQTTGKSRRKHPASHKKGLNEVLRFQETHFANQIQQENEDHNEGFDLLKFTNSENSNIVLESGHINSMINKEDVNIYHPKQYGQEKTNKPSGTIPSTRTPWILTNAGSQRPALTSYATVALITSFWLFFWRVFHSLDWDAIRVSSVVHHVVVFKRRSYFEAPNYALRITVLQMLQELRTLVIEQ
# Chain of DIP-α (Drosophila melanogaster) (Q9W4R3 entry or part of it): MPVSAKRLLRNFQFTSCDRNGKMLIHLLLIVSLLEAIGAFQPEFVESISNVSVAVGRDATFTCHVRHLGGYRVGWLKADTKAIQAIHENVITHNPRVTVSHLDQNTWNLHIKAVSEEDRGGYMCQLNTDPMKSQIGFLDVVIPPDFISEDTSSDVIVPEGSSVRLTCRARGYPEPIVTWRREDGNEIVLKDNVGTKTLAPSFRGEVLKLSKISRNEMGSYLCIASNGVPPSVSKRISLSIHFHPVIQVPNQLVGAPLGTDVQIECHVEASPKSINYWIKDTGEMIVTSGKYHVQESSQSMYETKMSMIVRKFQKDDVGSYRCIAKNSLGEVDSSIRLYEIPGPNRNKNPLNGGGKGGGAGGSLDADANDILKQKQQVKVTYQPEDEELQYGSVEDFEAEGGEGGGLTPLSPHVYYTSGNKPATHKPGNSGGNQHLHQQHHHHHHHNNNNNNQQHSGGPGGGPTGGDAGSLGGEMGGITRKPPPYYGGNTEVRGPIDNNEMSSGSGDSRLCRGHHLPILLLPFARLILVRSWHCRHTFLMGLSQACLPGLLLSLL
# Chain of DIP-β isoform C (Drosophila melanogaster) (main, as listed by the source): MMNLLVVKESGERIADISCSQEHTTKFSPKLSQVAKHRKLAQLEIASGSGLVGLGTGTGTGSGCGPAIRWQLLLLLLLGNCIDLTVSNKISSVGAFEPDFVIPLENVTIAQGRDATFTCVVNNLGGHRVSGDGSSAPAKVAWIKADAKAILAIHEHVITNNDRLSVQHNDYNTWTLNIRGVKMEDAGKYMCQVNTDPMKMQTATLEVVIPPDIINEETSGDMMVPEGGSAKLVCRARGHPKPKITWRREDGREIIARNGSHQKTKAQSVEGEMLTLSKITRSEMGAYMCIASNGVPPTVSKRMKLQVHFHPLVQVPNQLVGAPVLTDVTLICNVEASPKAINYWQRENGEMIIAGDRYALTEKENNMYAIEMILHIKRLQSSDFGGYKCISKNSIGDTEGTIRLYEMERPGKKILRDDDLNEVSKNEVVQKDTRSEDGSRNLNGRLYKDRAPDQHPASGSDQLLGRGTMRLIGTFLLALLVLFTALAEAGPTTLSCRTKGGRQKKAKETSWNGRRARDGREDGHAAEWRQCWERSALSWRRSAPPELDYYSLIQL
binder,measurement,setting,value
Dpr10 isoform A (domain or fragment) WNEPYFDLTMPRNITSLVGKSAYLGCRVKHLGNKTVAWIRHRDLHILTVGTYTYTTDQRFQTSYHRDIDEWTLQIKWAQQRDAGVYECQISTQPVRSYSVNLNIVDLIDAETSDIMQQYYNDDAFYIAENRVYQSSNDEFAGMFGPIQTVAVPTATILGGPDLYVDKGSTINLTCIIKFSPEPPTHIFWYHQDKVLSEETSGGRLKFKTIKSEETKSILLIYDADLLHSGKYSCYPSNTEIASIRVHVLQGE,Kd,[1],84 µM
same,Kd,[2],1.34 µM
same,Kd,[3],5.84 µM
